{"source": "patent US5614198A", "about": "“Bowman-Birk Inhibitor compositions for treatment of inflammatory disease” (The Trustees of the University of Pennsylvania, priority 1995, dated 1997)", "molecules": {"B1": {"name": "BBI: protease inhibitor derived from soybeans; 71 amino acid chain with 7 disulfide bonds, molecular weight approximately 8000 (protein, UniProt P01055 40-110, looked up)", "Bowman-Birk type proteinase …": "DDESSKPCCDQCACTKSNPPQCRCSDMRLNSCHSACKSCICALSYPAQCFCVDITDFCYEPCKPSEDDKEN"}, "B2": {"name": "COI: chicken ovoinhibitor (protein, UniProt P10184 1-517, looked up)", "Ovoinhibitor": "MTDWVLHHKVGPLDMTTRYIFPLLPLPFLPHSESKRAVCAPRCSAMRTARQFVQVALALCCFADIAFGIEVNCSLYASGIGKDGTSWVACPRNLKPVCGTDGSTYSNECGICLYNREHGANVEKEYDGECRPKHVTIDCSPYLQVVRDGNTMVACPRILKPVCGSDSFTYDNECGICAYNAEHHTNISKLHDGECKLEIGSVDCSKYPSTVSKDGRTLVACPRILSPVCGTDGFTYDNECGICAHNAEQRTHVSKKHDGKCRQEIPEIDCDQYPTRKTTGGKLLVRCPRILLPVCGTDGFTYDNECGICAHNAQHGTEVKKSHDGRCKERSTPLDCTQYLSNTQNGEAITACPFILQEVCGTDGVTYSNDCSLCAHNIELGTSVAKKHDGRCREEVPELDCSKYKTSTLKDGRQVVACTMIYDPVCATNGVTYASECTLCAHNLEQRTNLGKRKNGRCEEDITKEHCREFQKVSPICTMEYVPHCGSDGVTYSNRCFFCNAYVQSNRTLNLVSMAAC"}, "B3": {"name": "SBTI: soybean (Kunitz) trypsin inhibitor (protein, UniProt P01070 25-205, looked up)", "Trypsin inhibitor A": "DFVLDNEGNPLENGGTYYILSDITAFGGIRAAPTGNERCPLTVVQSRNELDKGIGTIISSPYRIRFIAEGHPLSLKFDSFAVIMLCVGIPTEWSVVEDLPEGPAVKIGENKDAMDGWFRLERVSDDEFNNYKLVFCPQQAEDDKCGDIGISIDHDDGTRRLVVSKNKPLVVQFQKLDKESL"}}, "key": {"[1]": {"test_system": "proteolytic activity in colon mucosa", "experiment": "proteolytic activity in colon mucosal biopsy samples of DMH-treated rats (MCA substrates)", "assay_type": "in vivo, rat", "settings": "for levels of proteolytic activity in colon mucosa of DMH-exposed animals: one month after last DMH dose, 0.1% dietary BBIC, FIG. 5; for Protease Activity/μg protein, Glt-Gly-Arg-MCA, Mean / Protease Activity/μg protein, Boc-Val-Leu-Lys-MCA, Mean / Protease Activity/μg protein, Boc-Val-Pro-Arg-MCA, Mean: rat colon biopsy one month after last DMH injection (total 80 mg/kg), 0.1% dietary inhibitor where given, 1 animal, 3 samples; for Protease Activity/μg protein, Glt-Gly-Arg-MCA, Mean: control 1.21; for Protease Activity/μg protein, Boc-Val-Leu-Lys-MCA, Mean: control 3.07; for Protease Activity/μg protein, Boc-Val-Pro-Arg-MCA, Mean: control 15.97", "protocol": "The levels of proteolytic activity were determined as following. Colon mucosal biopsy samples were thawed on ice and homogenized in ice-cold PBS in a sterile teflon-glass homogenizer. The level of proteolytic activity was measured by incubating aliquots of sample in 0.1M Tris (pH 7.5)-5 mM CaC12, with each of the following synthetic substrates: Boc-Val-Pro-Arg-MCA; Boc-Val-Leu-Lys-MCA; and Glt-Gly-Arg-MCA (Peninsula Laboratories, Inc., Belmont, Calif.). These substrates were selected since it is known that the proteolytic activity cleaving these substrates is affected by BBI. After a 2 hour incubation at 37° C., the reaction was terminated by dilution with 1.8 ml distilled H2 O. Release of the fluorescent reporter group, amino-methyl coumarin, was determined spectrophotometrically at excitation and emission wavelengths of 380 and 460 nm, respectively. […] Data were standardized on the basis of protein content and expressed as proteolytic activity/μg protein.\nIn these studies, animals were untreated or treated twice weekly for three weeks with DMH. […] One group of treated animals was also exposed to 0.1% dietary BBIC during and after the DMH injection period. Animals were killed one month after the last DMH injection was given. Colon biopsy samples were obtained and proteolytic activity levels were determined as described for the human mucosal biopsy samples."}, "[2]": {"test_system": "cells of patients with Bloom's syndrome", "settings": "Kennedy et al., 1984; cited from earlier work"}, "[3]": {"test_system": "TPA-activated polymorphonuclear leukocytes (PMNs)", "settings": "TPA-activated human PMNs (Frenkel et al.); cited from earlier work"}, "C3H10T1/2 cells": {"test_system": "C3H10T1/2 cells", "settings": "Yavelow et al., 1985; cited from earlier work"}, "[4]": {"test_system": "DMH-induced colon and liver carcinogenesis", "settings": "0.5% of the diet or less (St. Clair et al.); cited from earlier work"}, "trypsin": {"test_system": "trypsin", "experiment": "gelatin zymogram, trypsin control lanes", "assay_type": "biochemical", "settings": "10 μg/ml; 5 ng trypsin; lanes 4 and 6 vs lane 1", "quoted_text": "BBI or BBIC (at 10 μg/ml) was added to some of the biopsy sample homogenates and protease activity was analyzed on gelatin zymograms. The same rat colon sample from a 14 day DNBS/ethanol treated rat was used for the protease/zymogram analyses. The gel was run at 200 V for 40 minutes and was then cut into pieces. Each gel/column was treated as follows: 1) Control-contained 5 ng trypsin; 2) UC sample incubated in Tris at pH 8.0; 3) UC sample incubated in Tris at pH 8.0 with BBI added to achieve a final concentration of 10 μg/ml; 4) Control-contained 5 ng trypsin with BBI added to achieve a final concentration of 10 μg/ml; 5) UC sample incubated in Tris at pH 8.0 with BBIC added to achieve a final concentration of 10 μg/ml; 6) Control-contained 5 ng trypsin with BBIC added to achieve a final concentration of 10 μg/ml.\nTwelve percent sodium diodecyl sulfate (SDS) polyacrylamide gels of 0.75 mm thickness were prepared containing 0.1% gelatin. A 2% gelatin stock was prepared in advance by dissolving gelatin in warm distilled water. Samples were placed in the gel wells in standard SDS-gel-loading buffer that contained 0.1% SDS but lacked beta-mercaptoethanol. They were not boiled prior to loading. The gels were run at 200 V for 40 minutes in a Bio-Rad Mini Protean II apparatus and then soaked in distilled water containing 2% Triton X-100 on a gyrorotary shaker for 15 minutes at 20° C. […]"}}, "note": "“Also recorded” adds a separate entry of the source.", "data": [{"molecule": "CNNC", "note": "[DMH, dimethylhydrazine, reference compound]", "values": [{"measurement": "levels of proteolytic activity in colon mucosa of DMH-exposed animals", "setting": "[1]", "value": "highly significant elevation"}, {"measurement": "Protease Activity/μg protein, Glt-Gly-Arg-MCA, Mean", "setting": "[1]", "value": 6.15, "unit": "RFU/hr/Ag protein"}, {"measurement": "Protease Activity/μg protein, Boc-Val-Leu-Lys-MCA, Mean", "setting": "[1]", "value": 10.15, "unit": "RFU/hr/Ag protein"}, {"measurement": "Protease Activity/μg protein, Boc-Val-Pro-Arg-MCA, Mean", "setting": "[1]", "value": 43.43, "unit": "RFU/hr/Ag protein"}]}, {"molecule": "B1", "values": [{"measurement": "levels of chromosome abnormalities", "setting": "[2]", "value": "reduce the levels of chromosome abnormalities"}, {"measurement": "order of activity, inhibition of H2O2 formation", "setting": "[3]", "value": "PtI-1≥PCI-2>PtI-2>COI>BBI>TOOI>LBI>SBTI"}, {"measurement": "levels of proteolytic activity in colon mucosa of DMH-exposed animals", "setting": "[1]", "value": "not significantly different from control animals; also recorded: reduction in levels of these proteolytic activities"}, {"measurement": "Protease Activity/μg protein, Glt-Gly-Arg-MCA, Mean", "setting": "[1]", "value": 0.81, "unit": "RFU/hr/Ag protein"}, {"measurement": "Protease Activity/μg protein, Boc-Val-Leu-Lys-MCA, Mean", "setting": "[1]", "value": 1.96, "unit": "RFU/hr/Ag protein"}, {"measurement": "Protease Activity/μg protein, Boc-Val-Pro-Arg-MCA, Mean", "setting": "[1]", "value": 22.22, "unit": "RFU/hr/Ag protein"}, {"measurement": "radiation induced transformation in C3H10T1/2 cells", "setting": "C3H10T1/2 cells", "value": "suppresses radiation induced transformation in C3H10T1/2 cells"}, {"measurement": "effect upon the health of the mice", "setting": "[4]", "value": "no adverse effect upon the health of the mice"}, {"measurement": "inhibition of proteolytic activity of trypsin", "setting": "trypsin", "value": "effectively inhibit the proteolytic activity of trypsin"}]}, {"molecule": "B2", "values": [{"measurement": "order of activity, inhibition of H2O2 formation", "setting": "[3]", "value": "PtI-1≥PCI-2>PtI-2>COI>BBI>TOOI>LBI>SBTI"}]}, {"molecule": "B3", "values": [{"measurement": "order of activity, inhibition of H2O2 formation", "setting": "[3]", "value": "PtI-1≥PCI-2>PtI-2>COI>BBI>TOOI>LBI>SBTI"}]}]}
